Assay results published in article PMC3784749.

Target: glutathione S-transferase from Schistosoma japonicum (Schistosoma japonicum)
Assay: SAXS; GST alone in 20 mM phosphate, 80 mM NaCl, pH 8.0, 20 °C; shape reconstruction (GASBOR, DAMAVER) superimposed on crystal structure 1UA5

stoichiometry N: 2
Substance: glutathione S-transferase from Schistosoma japonicum (enzyme)
